# Results reported in US20210246166A1 (Bayer, published 2021).
# Numbered stars: 1 amine (or outer) side, 2 acyl side, 3 side chain; on linkers, the order of the positions; unused ones are H or OH. Bridge positions count the residues as written; N and C are the ends. Square brackets hold non-standard residues; d marks the D form. Ends that are not written are not given here. * marks the point of attachment. Phe(2,5-F2) = 2,5-difluorophenylalanine, O=C([C@H](Cc1cc(F)ccc1F)N[*:1])[*:2]; X12 = (S)‑(trifluoromethyl)‑L‑cysteine, O=C([C@H](CSC(F)(F)F)N[*:1])[*:2]; (N,N-diMe)A = (N,N-diMe)A, L-N,N-dimethylalanine, C[C@@H](C(=O)*)N(C)C; Leu(4-F) = 4-fluoroleucine, CC(C)(F)C[C@H](N[*:1])C(=O)[*:2]; Pro(4-spirocPr) = O=C(O)[C@@H]1CC2(CC2)CN1; Oic = O=C(O)[C@@H]1C[C@@H]2CCCC[C@@H]2N1; Phe(2-Cl) = N[C@@H](Cc1ccccc1Cl)C(=O)O; tBuAla = CC(C)(C)C[C@H](N)C(=O)O; Chg = N[C@H](C(=O)O)C1CCCCC1; Pen = CC(C)(S)[C@H](N)C(=O)O; NMePro = CN1CCC[C@H]1C(=O)*; ΔPro = O=C(O)[C@@H]1C=CCN1; 4Amb = NCc1ccc(C(=O)O)cc1; NMeC = CN[C@@H](CS)C(=O)O; Orn = NCCC[C@H](N)C(=O)O; Sar = CNCC(=O)O
# T1: Recombinant human MASP1 enzyme (fragment corresponding to amino acids 297-699, C-terminal His Tag) (human, UniProt P48740 297-699)
# T1 sequence: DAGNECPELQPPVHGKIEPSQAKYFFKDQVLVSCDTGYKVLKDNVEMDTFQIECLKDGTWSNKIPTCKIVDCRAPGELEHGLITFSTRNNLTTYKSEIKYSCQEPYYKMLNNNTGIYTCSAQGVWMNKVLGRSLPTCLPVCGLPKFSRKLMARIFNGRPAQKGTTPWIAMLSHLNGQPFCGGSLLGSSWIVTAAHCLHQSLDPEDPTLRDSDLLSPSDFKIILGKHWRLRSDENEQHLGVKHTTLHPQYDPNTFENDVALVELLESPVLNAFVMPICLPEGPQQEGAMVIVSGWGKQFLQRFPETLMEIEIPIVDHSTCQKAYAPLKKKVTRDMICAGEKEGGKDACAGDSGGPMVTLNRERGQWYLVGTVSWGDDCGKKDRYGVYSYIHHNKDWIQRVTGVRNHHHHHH
# B1: AIC+SRS-((2,5-Difluoro)F)-PPI-((N-Me)C)+IPD-NH2 (peptide)
# peptide: AICSRS[Phe(2,5-F2)]PPI[NMeC]IPD-NH2
# modifications: disulfide 3-11; N-terminus assumed
# SMILES: CC[C@H](C)[C@H](NC(=O)[C@H](C)N)C(=O)N[C@H]1CSSC[C@@H](C(=O)N[C@H](C(=O)N2CCC[C@H]2C(=O)N[C@@H](CC(=O)O)C(N)=O)[C@@H](C)CC)N(C)C(=O)[C@H]([C@@H](C)CC)NC(=O)[C@@H]2CCCN2C(=O)[C@@H]2CCCN2C(=O)[C@H](Cc2cc(F)ccc2F)NC(=O)[C@H](CO)NC(=O)[C@H](CCCNC(=N)N)NC(=O)[C@H](CO)NC1=O
# B2: (Orn)-IC+SRSLPPIC+I-NH2 (peptide)
# peptide: [Orn]ICSRSLPPICI-NH2
# modifications: disulfide 3-11; N-terminus assumed
# SMILES: CC[C@H](C)[C@H](NC(=O)[C@@H]1CSSC[C@H](NC(=O)[C@@H](NC(=O)[C@@H](N)CCCN)[C@@H](C)CC)C(=O)N[C@@H](CO)C(=O)N[C@@H](CCCNC(=N)N)C(=O)N[C@@H](CO)C(=O)N[C@@H](CC(C)C)C(=O)N2CCC[C@H]2C(=O)N2CCC[C@H]2C(=O)N[C@@H]([C@@H](C)CC)C(=O)N1)C(N)=O
# B3: AIC+SRSL-(L-dehydroproline)-(Oic)-I-(Pen)+IPD-OH (peptide)
# peptide: AICSRSL[ΔPro][Oic]I[Pen]IPD-OH
# modifications: disulfide 3-11; N-terminus assumed
# SMILES: CC[C@H](C)[C@H](NC(=O)[C@H](C)N)C(=O)N[C@H]1CSSC(C)(C)[C@@H](C(=O)N[C@H](C(=O)N2CCC[C@H]2C(=O)N[C@@H](CC(=O)O)C(=O)O)[C@@H](C)CC)NC(=O)[C@H]([C@@H](C)CC)NC(=O)[C@@H]2C[C@@H]3CCCC[C@@H]3N2C(=O)[C@@H]2C=CCN2C(=O)[C@H](CC(C)C)NC(=O)[C@H](CO)NC(=O)[C@H](CCCNC(=N)N)NC(=O)[C@H](CO)NC1=O
# B4: AIC+SRS-((2-Chloro)F)-PPI-((N-Me)C)+IPD-NH2 (peptide)
# peptide: AICSRS[Phe(2-Cl)]PPI[NMeC]IPD-NH2
# modifications: disulfide 3-11; N-terminus assumed
# SMILES: CC[C@H](C)[C@H](NC(=O)[C@H](C)N)C(=O)N[C@H]1CSSC[C@@H](C(=O)N[C@H](C(=O)N2CCC[C@H]2C(=O)N[C@@H](CC(=O)O)C(N)=O)[C@@H](C)CC)N(C)C(=O)[C@H]([C@@H](C)CC)NC(=O)[C@@H]2CCCN2C(=O)[C@@H]2CCCN2C(=O)[C@H](Cc2ccccc2Cl)NC(=O)[C@H](CO)NC(=O)[C@H](CCCNC(=N)N)NC(=O)[C@H](CO)NC1=O
# B5: (4-(Aminomethyl)benzoic acid)-IC+SRS-((tBu)A)-PPI-((N-Me)C)+IPD-NH2 (peptide)
# peptide: [4Amb]ICSRS[tBuAla]PPI[NMeC]IPD-NH2
# modifications: disulfide 3-11; N-terminus assumed
# SMILES: CC[C@H](C)[C@H](NC(=O)c1ccc(CN)cc1)C(=O)N[C@H]1CSSC[C@@H](C(=O)N[C@H](C(=O)N2CCC[C@H]2C(=O)N[C@@H](CC(=O)O)C(N)=O)[C@@H](C)CC)N(C)C(=O)[C@H]([C@@H](C)CC)NC(=O)[C@@H]2CCCN2C(=O)[C@@H]2CCCN2C(=O)[C@H](CC(C)(C)C)NC(=O)[C@H](CO)NC(=O)[C@H](CCCNC(=N)N)NC(=O)[C@H](CO)NC1=O
# B6: (Orn)-IC+SRS-((S)-(trifluoromethyl)-L-cysteine)-PPI-(Pen)+IP-NH2 (peptide)
# peptide: [Orn]ICSRS[X12]PPI[Pen]IP-NH2
# modifications: disulfide 3-11; N-terminus assumed
# SMILES: CC[C@H](C)[C@H](NC(=O)[C@@H](N)CCCN)C(=O)N[C@H]1CSSC(C)(C)[C@@H](C(=O)N[C@H](C(=O)N2CCC[C@H]2C(N)=O)[C@@H](C)CC)NC(=O)[C@H]([C@@H](C)CC)NC(=O)[C@@H]2CCCN2C(=O)[C@@H]2CCCN2C(=O)[C@H](CSC(F)(F)F)NC(=O)[C@H](CO)NC(=O)[C@H](CCCNC(=N)N)NC(=O)[C@H](CO)NC1=O
# B7: ((N,N-diMe)A)-IC+SRS-((tBu)A)-PPIC+IPD-NH2 (peptide)
# peptide: [(N,N-diMe)A]ICSRS[tBuAla]PPICIPD-NH2
# modifications: disulfide 3-11; N-terminus assumed
# SMILES: CC[C@H](C)[C@H](NC(=O)[C@H](C)N(C)C)C(=O)N[C@H]1CSSC[C@@H](C(=O)N[C@H](C(=O)N2CCC[C@H]2C(=O)N[C@@H](CC(=O)O)C(N)=O)[C@@H](C)CC)NC(=O)[C@H]([C@@H](C)CC)NC(=O)[C@@H]2CCCN2C(=O)[C@@H]2CCCN2C(=O)[C@H](CC(C)(C)C)NC(=O)[C@H](CO)NC(=O)[C@H](CCCNC(=N)N)NC(=O)[C@H](CO)NC1=O
# B8: ((N-Me)G)-IC+SRSLP-(Oic)-I-(Pen)+I-NH2 (peptide)
# peptide: [Sar]ICSRSLP[Oic]I[Pen]I-NH2
# modifications: disulfide 3-11; N-terminus assumed
# SMILES: CC[C@H](C)[C@H](NC(=O)[C@H]1NC(=O)[C@H]([C@@H](C)CC)NC(=O)[C@@H]2C[C@@H]3CCCC[C@@H]3N2C(=O)[C@@H]2CCCN2C(=O)[C@H](CC(C)C)NC(=O)[C@H](CO)NC(=O)[C@H](CCCNC(=N)N)NC(=O)[C@H](CO)NC(=O)[C@@H](NC(=O)[C@@H](NC(=O)CNC)[C@@H](C)CC)CSSC1(C)C)C(N)=O
# B9: AIC+SRSLP-((6S)-5-Azaspiro[2.4]heptane-6-carboxylic acid)-IC+IPD-NH2 (peptide)
# peptide: AICSRSLP[Pro(4-spirocPr)]ICIPD-NH2
# modifications: disulfide 3-11; N-terminus assumed
# SMILES: CC[C@H](C)[C@H](NC(=O)[C@H](C)N)C(=O)N[C@H]1CSSC[C@@H](C(=O)N[C@H](C(=O)N2CCC[C@H]2C(=O)N[C@@H](CC(=O)O)C(N)=O)[C@@H](C)CC)NC(=O)[C@H]([C@@H](C)CC)NC(=O)[C@@H]2CC3(CC3)CN2C(=O)[C@@H]2CCCN2C(=O)[C@H](CC(C)C)NC(=O)[C@H](CO)NC(=O)[C@H](CCCNC(=N)N)NC(=O)[C@H](CO)NC1=O
# B10: ((N-Me)G)-IC+SRS-((tBu)A)-PPIC+IPD-OH (peptide)
# peptide: [Sar]ICSRS[tBuAla]PPICIPD-OH
# modifications: disulfide 3-11; N-terminus assumed
# SMILES: CC[C@H](C)[C@H](NC(=O)CNC)C(=O)N[C@H]1CSSC[C@@H](C(=O)N[C@H](C(=O)N2CCC[C@H]2C(=O)N[C@@H](CC(=O)O)C(=O)O)[C@@H](C)CC)NC(=O)[C@H]([C@@H](C)CC)NC(=O)[C@@H]2CCCN2C(=O)[C@@H]2CCCN2C(=O)[C@H](CC(C)(C)C)NC(=O)[C@H](CO)NC(=O)[C@H](CCCNC(=N)N)NC(=O)[C@H](CO)NC1=O
# B11: AIC+SRSLPP-(Chg)-C+I-NH2 (peptide)
# peptide: AICSRSLPP[Chg]CI-NH2
# modifications: disulfide 3-11; N-terminus assumed
# SMILES: CC[C@H](C)[C@H](NC(=O)[C@@H]1CSSC[C@H](NC(=O)[C@@H](NC(=O)[C@H](C)N)[C@@H](C)CC)C(=O)N[C@@H](CO)C(=O)N[C@@H](CCCNC(=N)N)C(=O)N[C@@H](CO)C(=O)N[C@@H](CC(C)C)C(=O)N2CCC[C@H]2C(=O)N2CCC[C@H]2C(=O)N[C@@H](C2CCCCC2)C(=O)N1)C(N)=O
# B12: AIC+SRS-((4-Fluoro)L)-PPIC+IPD-NH2 (peptide)
# peptide: AICSRS[Leu(4-F)]PPICIPD-NH2
# modifications: disulfide 3-11; N-terminus assumed
# SMILES: CC[C@H](C)[C@H](NC(=O)[C@H](C)N)C(=O)N[C@H]1CSSC[C@@H](C(=O)N[C@H](C(=O)N2CCC[C@H]2C(=O)N[C@@H](CC(=O)O)C(N)=O)[C@@H](C)CC)NC(=O)[C@H]([C@@H](C)CC)NC(=O)[C@@H]2CCCN2C(=O)[C@@H]2CCCN2C(=O)[C@H](CC(C)(C)F)NC(=O)[C@H](CO)NC(=O)[C@H](CCCNC(=N)N)NC(=O)[C@H](CO)NC1=O
# B13: ((N-Me)P)-IC+SRS-((tBu)A)-PPIC+IPD-NH2 (peptide)
# peptide: [NMePro]ICSRS[tBuAla]PPICIPD-NH2
# modifications: disulfide 3-11
# SMILES: CC[C@H](C)[C@H](NC(=O)[C@@H]1CCCN1C)C(=O)N[C@H]1CSSC[C@@H](C(=O)N[C@H](C(=O)N2CCC[C@H]2C(=O)N[C@@H](CC(=O)O)C(N)=O)[C@@H](C)CC)NC(=O)[C@H]([C@@H](C)CC)NC(=O)[C@@H]2CCCN2C(=O)[C@@H]2CCCN2C(=O)[C@H](CC(C)(C)C)NC(=O)[C@H](CO)NC(=O)[C@H](CCCNC(=N)N)NC(=O)[C@H](CO)NC1=O
# Target: T1, Recombinant human MASP1 enzyme …
# Assay: cell-based or functional assay
row,Binder,human MASP1 IC50 [nM]
1,B1,7.6
2,B2,7.8
3,B3,9.3
4,B4,8.1
5,B5,8.1
6,B6,8.1
7,"AICSRSL[(4aR,6aR,9S,11aS)‑11‑Oxo‑2,3,4,4a,6a,7,8,9,11,11a‑decahydro‑1H‑pyrido(3,2-e)pyrrolo(1,2-a)azepine‑9‑carboxylic acid]ICIPD-NH2 (disulfide 3-10)",8.2
8,B7,8.3
9,B8,8.45
10,B9,8.5
11,B10,8.8
12,B11,8.9
13,B12,8.9
14,[Sar]ICSRSLP[Oic]I[Pen]IP-NH2 (disulfide 3-11; also: acetate salt) [((N-Me)G)-IC+SRSLP-(Oic)-I-(Pen)+IP-NH2 (Acetate)],1.4
15,B13,9.3

# Target: Recombinant human MASP2 enzyme (fragment corresponding to amino acids 297-686, C-terminal His Tag) (human, UniProt O00187 297-686)
# Sequence (O00187 other isoform, or with tags, fused parts or gaps limits assumed): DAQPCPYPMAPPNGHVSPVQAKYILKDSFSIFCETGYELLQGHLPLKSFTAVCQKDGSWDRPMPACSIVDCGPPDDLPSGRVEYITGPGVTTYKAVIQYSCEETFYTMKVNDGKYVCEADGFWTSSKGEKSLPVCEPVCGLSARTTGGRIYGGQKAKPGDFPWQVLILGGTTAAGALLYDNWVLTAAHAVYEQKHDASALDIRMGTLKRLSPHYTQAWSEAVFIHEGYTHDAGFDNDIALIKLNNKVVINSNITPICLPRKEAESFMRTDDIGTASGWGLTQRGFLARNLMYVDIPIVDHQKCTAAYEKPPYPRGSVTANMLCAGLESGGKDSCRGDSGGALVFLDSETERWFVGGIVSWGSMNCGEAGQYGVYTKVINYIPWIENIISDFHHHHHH
# Assay: cell-based or functional assay
row,Binder,human MASP2 IC50 [nM]
1,B1,63
2,B2,190
3,B3,64
4,B4,130
5,B5,35
6,B6,56
7,"AICSRSL[(4aR,6aR,9S,11aS)‑11‑Oxo‑2,3,4,4a,6a,7,8,9,11,11a‑decahydro‑1H‑pyrido(3,2-e)pyrrolo(1,2-a)azepine‑9‑carboxylic acid]ICIPD-NH2 (disulfide 3-10)",72.5
8,B7,120
9,B8,295
10,B9,33
11,B10,2600
12,B11,92
13,B12,300
14,[Sar]ICSRSLP[Oic]I[Pen]IP-NH2 (disulfide 3-11; also: acetate salt) [((N-Me)G)-IC+SRSLP-(Oic)-I-(Pen)+IP-NH2 (Acetate)],37
15,B13,260
